Values quoted from earlier work, collected in PMC2635555.
pKd: −log10 of the molar value.

Target: Histone H3 (H3K4me0) N-terminal tail (Homo sapiens) (UniProt P68431)

Sequence of AIRE PHD1 (O43918 296-343): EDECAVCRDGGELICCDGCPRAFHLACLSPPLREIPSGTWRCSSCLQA

pKd: 5.30
Substance: AIRE PHD1 (from UniProt O43918)
